Earlier results in patent publication US20080125354A1, “SELECTIVE INHIBITION OF MATRIX METALLOPROTEINASES” (Florida Atlantic University, priority 2005, published 2008).

Columns and labels:
[1] = target: T1, MMP-1 (Homo sapiens, UniProt P03956); conditions: 30° C., 40 nM enzyme, 40 μM substrate
T1 construct: made in house
T1 sequence (P03956 100-469): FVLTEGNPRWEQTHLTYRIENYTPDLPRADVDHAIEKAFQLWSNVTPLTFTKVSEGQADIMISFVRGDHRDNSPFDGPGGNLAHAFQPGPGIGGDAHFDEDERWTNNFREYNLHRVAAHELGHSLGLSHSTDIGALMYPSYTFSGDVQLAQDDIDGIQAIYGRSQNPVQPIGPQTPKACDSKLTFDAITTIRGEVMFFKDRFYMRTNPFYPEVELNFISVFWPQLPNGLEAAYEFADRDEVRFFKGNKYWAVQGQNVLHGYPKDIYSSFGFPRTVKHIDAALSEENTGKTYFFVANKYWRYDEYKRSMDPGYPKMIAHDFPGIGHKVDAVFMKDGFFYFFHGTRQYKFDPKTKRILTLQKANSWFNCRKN

[2] = target: T2, MMP-2 (Homo sapiens, UniProt P08253); conditions: 30° C., 40 nM enzyme, 40 μM substrate
T2 sequence (P08253 110-660): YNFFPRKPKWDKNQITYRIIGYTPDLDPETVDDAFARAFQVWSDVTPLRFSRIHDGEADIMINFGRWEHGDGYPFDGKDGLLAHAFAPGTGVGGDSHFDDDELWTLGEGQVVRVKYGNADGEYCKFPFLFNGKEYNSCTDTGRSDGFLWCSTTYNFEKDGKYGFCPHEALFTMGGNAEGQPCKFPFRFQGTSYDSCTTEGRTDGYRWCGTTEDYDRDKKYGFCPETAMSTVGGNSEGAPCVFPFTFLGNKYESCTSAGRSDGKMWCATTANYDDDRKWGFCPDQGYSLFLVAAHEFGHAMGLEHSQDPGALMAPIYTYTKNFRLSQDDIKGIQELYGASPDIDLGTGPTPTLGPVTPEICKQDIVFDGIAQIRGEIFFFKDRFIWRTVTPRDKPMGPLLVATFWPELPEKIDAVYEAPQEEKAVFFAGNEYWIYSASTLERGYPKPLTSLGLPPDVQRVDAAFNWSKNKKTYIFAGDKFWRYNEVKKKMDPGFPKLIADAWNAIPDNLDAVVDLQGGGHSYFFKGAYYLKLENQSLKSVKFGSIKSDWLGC

[3] = target: T3, MMP-3 (Homo sapiens, UniProt P08254); conditions: 30° C., 40 nM enzyme, 40 μM substrate
T3 construct: made in house
T3 sequence (P08254 100-477, species assumed): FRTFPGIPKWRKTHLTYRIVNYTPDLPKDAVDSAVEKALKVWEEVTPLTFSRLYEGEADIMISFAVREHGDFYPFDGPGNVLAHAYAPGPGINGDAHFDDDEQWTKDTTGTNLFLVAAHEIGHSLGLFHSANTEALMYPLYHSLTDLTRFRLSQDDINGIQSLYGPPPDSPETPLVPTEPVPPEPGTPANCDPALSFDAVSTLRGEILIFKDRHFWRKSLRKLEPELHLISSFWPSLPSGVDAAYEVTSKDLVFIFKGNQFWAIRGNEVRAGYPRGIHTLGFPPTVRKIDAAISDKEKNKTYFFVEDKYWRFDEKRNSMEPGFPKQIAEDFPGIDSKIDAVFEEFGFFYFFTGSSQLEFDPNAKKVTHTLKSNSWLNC

[4] = target: T4, MMP-8 (Homo sapiens, UniProt P22894); conditions: 30° C., 40 nM enzyme, 40 μM substrate
T4 construct: made in house; host or cells: CHO-K1 cells
T4 sequence (P22894 101-467, species assumed): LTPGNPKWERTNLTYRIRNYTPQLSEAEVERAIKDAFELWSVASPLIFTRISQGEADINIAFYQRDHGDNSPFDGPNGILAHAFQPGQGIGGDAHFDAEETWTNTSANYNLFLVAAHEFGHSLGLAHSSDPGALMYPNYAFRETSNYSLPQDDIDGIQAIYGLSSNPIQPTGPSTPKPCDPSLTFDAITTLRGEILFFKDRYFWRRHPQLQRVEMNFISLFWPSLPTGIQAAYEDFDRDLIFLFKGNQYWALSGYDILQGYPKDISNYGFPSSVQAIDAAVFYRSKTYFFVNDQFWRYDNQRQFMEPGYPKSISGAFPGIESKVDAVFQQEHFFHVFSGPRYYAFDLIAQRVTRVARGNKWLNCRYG

[5] = target: T5, MMP-13 (Homo sapiens, UniProt P45452); conditions: 30° C., 40 nM enzyme, 40 μM substrate
T5 construct: purchased R&D Systems (Minneapolis, Minn.)

[6] = target: MMP-14 (Homo sapiens, UniProt P50281); conditions: 30° C., 40 nM enzyme, 40 μM substrate
[7] = target: T2, MMP-2; conditions: MMP-2, earlier study
[8] = target: MMP-9 (Homo sapiens, UniProt P14780); conditions: 30° C., 40 nM enzyme, 40 μM substrate
MMP-9, sequence (P14780 94-707): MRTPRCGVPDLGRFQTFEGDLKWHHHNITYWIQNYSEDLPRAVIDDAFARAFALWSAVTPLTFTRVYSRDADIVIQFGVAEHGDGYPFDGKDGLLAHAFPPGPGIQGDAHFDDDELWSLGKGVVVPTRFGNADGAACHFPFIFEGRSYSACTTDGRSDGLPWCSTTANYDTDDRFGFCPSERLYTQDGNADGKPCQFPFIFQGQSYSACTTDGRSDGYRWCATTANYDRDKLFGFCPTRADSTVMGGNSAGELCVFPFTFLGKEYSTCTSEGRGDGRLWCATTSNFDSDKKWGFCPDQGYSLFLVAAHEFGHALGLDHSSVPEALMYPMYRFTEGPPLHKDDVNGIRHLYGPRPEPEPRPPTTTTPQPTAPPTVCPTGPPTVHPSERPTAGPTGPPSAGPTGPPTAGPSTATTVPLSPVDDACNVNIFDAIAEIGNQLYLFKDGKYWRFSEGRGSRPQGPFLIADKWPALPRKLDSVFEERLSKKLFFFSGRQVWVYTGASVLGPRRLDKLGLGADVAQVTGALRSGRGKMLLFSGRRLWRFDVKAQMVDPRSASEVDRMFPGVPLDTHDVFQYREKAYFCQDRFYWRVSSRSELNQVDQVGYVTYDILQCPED

[9] = target: T1, MMP-1; conditions: MMP-1, second earlier study

(Gly-Pro-Hyp)5-Gly-Pro-Gln-Gly˜Leu-Ala-Gly-Gln-Arg-Gly-Ile-Arg-(Gly-Pro-Hyp)5-NH2 [SEQ ID NO: 6]
hydrolysis of the substrate by MMP-1 (in words) [1]: hydrolyzed the substrate efficiently
hydrolysis of the substrate by MMP-2 (in words) [2]: hydrolyzed the substrate efficiently
hydrolysis of the substrate by MMP-3 (in words) [3]: did not
hydrolysis of the substrate by MMP-8 (in words) [4]: hydrolyzed the substrate efficiently
hydrolysis of the substrate by MMP-13 (in words) [5]: hydrolyzed the substrate efficiently
hydrolysis of the substrate by MMP-14 (in words) [6]: hydrolyzed the substrate efficiently

(Pro-Pro-Gly)12-NHOH
IC50 [7]: 90 µM

C6-(Gly-Pro-Hyp)4-Gly-Pro-Pro-Gly˜Val-Val-Gly-Glu-Gln-Gly-Glu-Gln-Gly-Pro-Pro-(Gly-Pro-Hyp)4-NH2 [SEQ ID NO: 5]
time to hydrolysis of the substrate by MMP-9 [8]: ≤ 1 h
hydrolysis of the substrate by MMP-1 (in words) [1]: did not cleave the substrate even after 24 h

(Pro-Pro-Gly)6-NHOH
IC50 [7]: 160 µM

hydroxamate-containing peptidomimetic onto the N-terminus of (Gly-Pro-Hyp)-4-Gly-Pro-Pro-Gly-Ser-Ser [C-terminally branched construct of a second earlier study carrying a hydroxamate-containing peptidomimetic]
IC50 [9]: ~0.009 µM
